# From article PMC9315428, “Distinctive in vitro ATP Hydrolysis Activity of AtVIPP1, a Chloroplastic ESCRT-III Superfamily Protein in Arabidopsis” (Frontiers in Plant Science, 2022)
# Substrate: Nc1ncnc2c1ncn2[C@@H]1O[C@H](COP(=O)(O)OP(=O)(O)OP(=O)(O)O)[C@@H](O)[C@H]1O
# Experiment: malachite green (PiColorLock) Pi release, Cornish-Bowden plot
# Format: biochemical, Arabidopsis thaliana
# Details: Mg2+ (2.5 mM MgCl2), pH 7.5, 37 °C, 0.5-4.0 mM ATP
# Excerpt: malachite green (PiColorLock) Pi release, Cornish-Bowden plot on AtVIPP1-His
protein,measurement,value
"AtVIPP1-His (Arabidopsis thaliana) (protein, mature protein, N-terminal transit peptide removed, C-terminal His tag kept; E. coli BL21(DE3)pLysS; homo-oligomer (spherical particles 30-50 nm, some rods)) MNLFERFSRVVKSYANALISSFEDPEKILEQTVIEMNSDLTKMRQATAQVLASQKQLQNKYKAAQQSSDDWYKRAQLALAKGDEDLAREALKRRKSFADNATALKTQLDQQKGVVDNLVSNTRLLESKIQEAKAKKDTLLARARTAKTATKVQEMIGTVNTSGALSAFEKMEEKVMAMESEADALTQIGTDELEGKFQMLETSSVDDDLADLKKELSGSSKKGELPPGRSTVAASTRYPFKDSEIENELNELRRKANDF",Km,3.21 mM
